# Data taken from IntAct's records for PubMed 20956295.
# Target: cav1_human CAV1 (UniProt Q03135)
# Chain of UniProt Q03135 (Q03135 whole entry): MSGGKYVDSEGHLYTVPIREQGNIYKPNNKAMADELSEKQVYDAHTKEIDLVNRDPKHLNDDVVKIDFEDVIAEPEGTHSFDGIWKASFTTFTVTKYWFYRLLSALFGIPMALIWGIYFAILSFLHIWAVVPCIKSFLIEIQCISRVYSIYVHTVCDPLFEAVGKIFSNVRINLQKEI
substance,measurement,value
Microtubule-associated protein 1 light chain 3 beta (Homo sapiens) (from UniProt Q9GZQ8) Y113A,effect of a mutation on the interaction,disrupting interaction
